The target of experiment [1] is RAMP1 ECD-CTR ECD fusion protein (human) (UniProt O60894). As to the kind of experiment: fluorescence polarisation.
For experiment [2], the target named is RAMP2 ECD-CTR ECD fusion protein (human) (UniProt O60895). As to the kind of experiment: fluorescence polarisation.
The target in experiment [3] is RAMP3 ECD-CTR ECD fusion protein (human) (UniProt O60896). As to the kind of experiment: fluorescence polarisation.
Experiment [4] deals with calcitonin receptor (CTR) extracellular domain (ECD) (human). The experiment in a line: fluorescence polarisation.
For experiment [5], the target named is full-length human calcitonin receptor C-terminally tagged with NanoLuc luciferase (human) (UniProt P30988).
The target of the next experiment is amylin receptor ECDs. The experiment in a line: fluorescence polarisation.

UniProt O60894, sequence (O60894 whole entry, the tested form may be a part): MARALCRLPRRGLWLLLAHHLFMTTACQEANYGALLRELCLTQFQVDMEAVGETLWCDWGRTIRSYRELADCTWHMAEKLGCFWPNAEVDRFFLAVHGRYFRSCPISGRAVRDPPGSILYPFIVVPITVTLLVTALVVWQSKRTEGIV
UniProt O60896, sequence (O60896 whole entry, the tested form may be a part): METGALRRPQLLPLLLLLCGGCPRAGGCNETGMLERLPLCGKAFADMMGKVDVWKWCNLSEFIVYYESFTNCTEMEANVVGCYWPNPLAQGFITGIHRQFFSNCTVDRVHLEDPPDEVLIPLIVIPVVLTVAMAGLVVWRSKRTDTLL
UniProt O60895, sequence (O60895 whole entry, looked up, the tested form may be a part): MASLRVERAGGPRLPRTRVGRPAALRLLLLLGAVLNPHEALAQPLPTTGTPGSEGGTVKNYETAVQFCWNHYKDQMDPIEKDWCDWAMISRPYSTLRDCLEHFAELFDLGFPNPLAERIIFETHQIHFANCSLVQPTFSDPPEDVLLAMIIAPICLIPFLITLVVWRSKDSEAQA
UniProt P30988, sequence (P30988 25-474): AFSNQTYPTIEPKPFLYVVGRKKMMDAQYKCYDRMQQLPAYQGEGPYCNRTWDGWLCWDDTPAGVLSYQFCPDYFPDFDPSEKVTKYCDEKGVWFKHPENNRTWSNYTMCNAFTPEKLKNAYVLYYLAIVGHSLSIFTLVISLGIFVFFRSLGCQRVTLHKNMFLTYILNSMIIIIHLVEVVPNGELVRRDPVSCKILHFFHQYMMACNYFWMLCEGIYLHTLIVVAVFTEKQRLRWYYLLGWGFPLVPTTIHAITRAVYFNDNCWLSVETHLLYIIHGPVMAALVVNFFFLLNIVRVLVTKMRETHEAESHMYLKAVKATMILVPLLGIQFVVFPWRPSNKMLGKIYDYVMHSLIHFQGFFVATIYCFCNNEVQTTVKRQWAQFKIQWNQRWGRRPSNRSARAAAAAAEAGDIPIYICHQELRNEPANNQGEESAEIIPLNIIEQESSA

Take “FITC-labeled AC413(6–25) with Y25P mutation (peptide)”: the figures for the Kd in experiment [1], in experiment [2] and in experiment [3] were 77 nM, 67 nM and 252 nM, respectively.

In the case of “FITC-labeled salmon calcitonin (sCT) fragment(22–32) (peptide)”, in experiment [4], the Kd is 500 nM.

As to pramlintide (peptide), the EC50 of receptor activation (mini-Gs recruitment BRET, HEK293T cells) in experiment [5] worked out at 72 nM.

For rat amylin(27–37) L27W/Y37P (peptide), the fold increase in affinity over rat amylin(27–37) L27Y/Y37P in experiment [1] worked out at 2 fold.

As to “rat amylin(27–37) L27Y/Y37P plus P29K (peptide)”, the fold increase in affinity over rat amylin(27–37) L27Y/Y37P in experiment [1] is 4 fold.

For “rat amylin(27–37) L27Y/Y37P plus P29R (peptide)”, the fold increase in affinity over rat amylin(27–37) L27Y/Y37P in experiment [1] is 4 fold.

In experiment [1], “rat amylin(27–37) L27Y/Y37P plus S34A (peptide)” yielded a fold increase in affinity over rat amylin(27–37) L27Y/Y37P of 2.5 fold.

“rat amylin(27–37) L27Y/Y37P plus S34HYP (hydroxyproline) (peptide)”: the fold decrease in affinity against the peptide with S34P in experiment [1] worked out at 9 fold.

As for “rat amylin(27–37) L27Y/Y37P plus S34P (peptide)”, in experiment [1], the fold increase in affinity over rat amylin(27–37) L27Y/Y37P is 3.6 fold.

In the experiment with amylin receptor ECDs, “rat amylin(27–37) with L27Y and Y37P double mutations (peptide)” registered a Ki of 4 to 11 µM.

For the substance “rat amylin(27–37) with Y37HYP (hydroxyproline) mutation (peptide)”, the fold increase in affinity over rat amylin(27–37) Y37P came out at 5 fold in experiment [1] and 3 fold in experiment [3].
